From patent US20040258695A1, “Transferrin binding peptides and uses thereof” (priority 2003, published 2004)

Experiments:
human transferrin (hTf) = target: T1, human transferrin (hTf) (Homo sapiens, UniProt P02787); test: First M. catarrhalis TbpB N-lobe overlapping peptide library screened with β-galactosidase conjugated hTf (colorimetric); type: binding; conditions: 15 mer peptides with 4-amino acid overlap
T1 construct: purchased Sigma
Source text: (§1) Generation of the overlapping peptide libraries representing human transferrin or the TbpB N-lobe regions from different bacteria was by the ‘SPOTSCAN’ method (Genosys Biotechnologies) (13). Essentially the library consisted of linear peptides 15 amino acids in length that were immobilized onto a cellulose membrane using 9-flurorenylmethoxycarbonyl (Fmoc) amino acid-based synthesis. One membrane was used to generate a library of the C-lobe of hTf consisting of ninety-six 15 amino acid peptides with an 11 amino acid overlap. The overlapping hTf peptide represented amino acids 285 to 679 of the intact hTf protein (accession # NP_001054). The first peptide library representing TbpB N-lobe from M. catarrhalis 4223 (accession #AAC34277) consisted of thirty-two 15 amino acid peptides with a 4 amino acid overlap and included N-lobe amino acids 12-421. The amino acid numbers refer to the amino acids in the predicted mature, processed protein (i.e. the N-terminal cysteine is amino acid 1). The second peptide library representing M. catarrhalis 4223 TbpB N-lobe peptides included amino acids 27-421 but with an 11 amino acid overlap.
(§2) Two different methods for labeling proteins for library screening were used. Iron loaded human Tf (Sigma) was labeled by chemical cross-linking (using 3-maleimidobenzoic acid-N-hydroxysuccinimide ester) to a beta-galactosidase (β-gal) reporter enzyme as described elsewhere (18). This was used as a probe for calorimetric detection on the composite peptide library. The second method involved conjugating the truncations of the N-lobe of TbpB from M. catarrhalis 4223 to horseradish peroxidase (HRP). HRP conjugated proteins can be detected by chemiluminescence, providing a much more sensitive screen. The truncations were conjugated to HRP using the Linx HRP Rapid Protein Conjugation Kit (Invitrogen). These labeled fusion proteins were then used as a probe for chemiluminescent detection.
Binding experiments of hTf to the first peptide library was by the calorimetric method (Genosys Biotechnologies). Essentially hTf in blocking solution (10% Blocking buffer (Genosys Biotechnologies), 50 mg/ml sucrose, T-TBS, (0.137 M NaCl, 2.68 mM KCl, 50.4 mM Tris-Base, 0.05% Tween-20, pH8.0) was incubated with the membrane containing the peptide library for 4 hours at room temperature. The membrane was then washed sequentially in T-TBS and PBS before detection of bound beta-galactosidase using 5-bromo-4-chloro-3-indoyl-β-D-galactopyranoside (X-gal). Positive binding was determined by the development of a blue spot.
Initially, an overlapping peptide library representing the TbpB N-lobe of M. catarrhalis was prepared and probed for binding to labeled hTf. This library was comprised of thirty-two 15 mer peptides with a 4-amino acid overlap representing amino acids 12-421 of the mature M. catarrhalis TbpB. The library was screened for binding to β-galactosidase (β-gal) conjugated hTf (β-gal-hTf ) and a number of positive-binding peptides were detected with varying intensity of colored product.

[1] = test system: TbpB N-lobe from M. catarrhalis 4223 (Mbp fusion truncations); test: hTf C-lobe overlapping peptide library probed with HRP-labeled TbpB N-lobe truncations (chemiluminescence); type: binding, Moraxella catarrhalis; conditions: for Binding By Truncations, Segments Included 1: TbpB N-lobe segment 1; for Binding By Truncations, Segments Included 1-2: TbpB N-lobe segments 1-2
Source text: as §1
TbpB truncations were generated by PCR-based cloning into the pMal expression system (New England BioLabs) as described previously (33). Essentially, amplified tbpB gene segments were subcloned into the pMal-c2 expression vector to generate an in frame fusion with the malE gene. Intact Moraxella catarrhalis 4223 TbpB consisted of amino acids 3-680 where 1 represents the N-terminal cysteine of the mature processed protein. Amino acids 1 and 2 from the mature protein were removed to ease cloning and subsequent expression. The N-terminal half of this gene consisted of amino acids 3 to 421. The truncated TbpB proteins were expressed as maltose binding protein fusions in E. coli ER2507 or ER2508 (for segments 1 and 1-2) and purified by amylose affinity chromatography.
as §2
For increased sensitivity, the TbpB N-lobe truncations from M. catarrhalis were conjugated to HRP for production and detection of chemiluminescent product. The membrane was rinsed with methanol and washed with 3 changes (5 minutes each) of TBS (0.137 M NaCl, 2.68 mM KCl, 50.4 mM Tris-Base, pH=8.0) on a rocking platform. The membrane was blocked by rocking at room temperature in blocking solution consisting of 20 ml of 0.5% Skim milk powder (BioRad) in TBS for 2.5 hours. The membrane was washed with T-TBS 3 times before being incubated with one of the HRP conjugated truncations diluted 1:1000 in skim milk blocking solution for 4 hours at room temperature. The membrane was then washed again 3 times with T-TBS, drained and incubated with 10 ml of Lumiglo mixture (Kirkegaard and Perry Laboratories) for 5 minutes. It was then exposed to X-omat Blue XB-1 X-Ray film (Kodak) for at least 30 seconds before developing. Positive peptides show up as dark spots on a light background.
To plan the truncation experiments, the N-lobe of M. catarrhalis was divided into seven segments with the identified binding peptides at their junctions. […]

[2] = target: T2, human transferrin (hTf), iron loaded (human, UniProt P02787 20-698); test: TbpB overlapping peptide library probed with labelled hTf as in Example 1
T2 construct: Used as a labelled probe (beta-gal conjugate for library 1, HRP conjugate for library 2 and the solid-phase assay); also called β-gal-hTf; HRP conjugated hTf
T2 sequence (P02787 20-698 limits assumed): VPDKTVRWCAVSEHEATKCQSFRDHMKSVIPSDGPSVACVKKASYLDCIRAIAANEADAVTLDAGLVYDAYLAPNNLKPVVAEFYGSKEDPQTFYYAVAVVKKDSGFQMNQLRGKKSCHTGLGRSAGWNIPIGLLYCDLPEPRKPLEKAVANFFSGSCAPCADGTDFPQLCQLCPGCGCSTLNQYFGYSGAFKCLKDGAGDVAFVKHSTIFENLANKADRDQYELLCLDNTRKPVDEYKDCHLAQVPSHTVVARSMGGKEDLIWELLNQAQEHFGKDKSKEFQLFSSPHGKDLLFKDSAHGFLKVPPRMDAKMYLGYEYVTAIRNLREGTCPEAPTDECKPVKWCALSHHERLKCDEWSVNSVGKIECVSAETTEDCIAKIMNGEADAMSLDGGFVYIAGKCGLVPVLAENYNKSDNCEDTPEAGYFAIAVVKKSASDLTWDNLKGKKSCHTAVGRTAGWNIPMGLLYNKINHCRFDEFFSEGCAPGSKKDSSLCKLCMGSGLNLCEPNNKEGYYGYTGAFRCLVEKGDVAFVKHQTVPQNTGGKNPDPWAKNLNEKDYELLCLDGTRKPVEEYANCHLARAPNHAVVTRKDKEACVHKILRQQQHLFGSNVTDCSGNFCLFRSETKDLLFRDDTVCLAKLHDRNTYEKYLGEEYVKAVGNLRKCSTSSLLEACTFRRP

β-galactosidase alone = target: T3, β-galactosidase alone (UniProt P00722 2-1024 = β-galactosidase); test: SPOT peptide library 1 probed with beta-galactosidase alone, colorimetric
T3 construct: Negative control probe for library 1; also called beta-galactosidase
T3 sequence (P00722 2-1024 limits assumed): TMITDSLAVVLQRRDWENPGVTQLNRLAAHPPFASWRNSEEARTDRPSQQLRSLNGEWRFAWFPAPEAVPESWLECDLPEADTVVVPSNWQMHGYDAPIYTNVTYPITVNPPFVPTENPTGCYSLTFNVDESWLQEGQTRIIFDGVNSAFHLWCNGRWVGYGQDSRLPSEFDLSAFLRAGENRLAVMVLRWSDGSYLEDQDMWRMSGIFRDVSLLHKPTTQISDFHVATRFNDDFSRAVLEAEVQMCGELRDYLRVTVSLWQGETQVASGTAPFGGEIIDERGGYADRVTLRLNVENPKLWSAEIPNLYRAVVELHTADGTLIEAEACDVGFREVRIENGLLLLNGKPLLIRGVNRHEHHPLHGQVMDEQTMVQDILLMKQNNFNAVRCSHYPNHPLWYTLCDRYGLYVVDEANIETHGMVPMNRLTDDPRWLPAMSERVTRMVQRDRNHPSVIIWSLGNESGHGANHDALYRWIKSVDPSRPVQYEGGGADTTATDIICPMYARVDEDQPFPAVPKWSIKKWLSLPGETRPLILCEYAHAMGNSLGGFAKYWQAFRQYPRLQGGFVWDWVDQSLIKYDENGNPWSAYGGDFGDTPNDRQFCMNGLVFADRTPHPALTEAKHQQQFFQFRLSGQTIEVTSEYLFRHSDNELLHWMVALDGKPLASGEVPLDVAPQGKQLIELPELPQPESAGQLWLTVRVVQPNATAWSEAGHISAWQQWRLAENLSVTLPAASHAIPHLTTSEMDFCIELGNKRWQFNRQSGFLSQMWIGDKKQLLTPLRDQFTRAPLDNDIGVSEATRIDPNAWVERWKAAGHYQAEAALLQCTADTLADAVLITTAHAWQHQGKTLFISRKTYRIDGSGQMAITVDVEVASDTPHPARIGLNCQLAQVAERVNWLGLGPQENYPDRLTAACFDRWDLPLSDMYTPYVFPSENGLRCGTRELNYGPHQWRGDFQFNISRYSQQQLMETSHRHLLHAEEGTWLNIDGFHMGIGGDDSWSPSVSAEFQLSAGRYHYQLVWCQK

[3] = target: T2, human transferrin (hTf), iron loaded; test: SPOT peptide library 1 of TbpB N-lobe probed with beta-gal-hTf, colorimetric

T1 sequence (P02787 20-698): as the sequence (P02787 20-698 limits assumed) above

For “agwyygasskdeynr (AGWYYGASSKDEYNR; M. catarrhalis) [Peptide 85]”, the “binding to β-gal-hTf, intensity of colored product” value (“binding to β-gal-hTf, intensity” for short) (human transferrin (hTf)) was “weakly positive”.

In the case of chlarapnhavvtrk [Peptide 44], the “Binding By Truncations, Segments Included 1-5” value ([1]; TbpB N-lobe segments 1-5, listed as 16 (yellow)) is reported as “lost reactivity”.

With “danihgnrfrgsata (DANIHGNRFRGSATA; M. catarrhalis) [Peptide 92]” the “binding to β-gal-hTf, intensity” value (human transferrin (hTf)) was “strongly positive”.

For “fmtdvanrrnrfsev (FMTDVANRRNRFSEV; M. catarrhalis) [Peptide 83]”, the “binding to β-gal-hTf, intensity” value (human transferrin (hTf)) was “moderately positive”.

In the case of “fsnlqdrhkgnvtkt (FSNLQDRHKGNVTKT; M. catarrhalis) [Peptide 90]”, the “binding to β-gal-hTf, intensity” value (human transferrin (hTf)) is reported as “strongly positive”.

“gpvggvfyngtttak (GPVGGVFYNGTTTAK; M. catarrhalis) [Peptide 80]” was tested, and the “binding to β-gal-hTf, intensity” value (human transferrin (hTf)) was “strongly positive”.

In the case of gsnvtdcsgnfclfr [Peptide 45], the “Binding By Truncations, Segments Included 1” value ([1]; listed as 18 (brown)) is reported as “loss of binding”.

“gyygytgafrclvek (GYYGYTGAFRCLVEK; listed as Homo sapiens) [Peptide 43, hTf C-lobe library peptide, domain 2 (Red)]” was tested, and the “Binding By Truncations, Segments Included 1-2” value ([1]; listed as 15 (red)) was “lost reactivity”.

In the case of “kksasdltwdnlkgk (KKSASDLTWDNLKGK; listed as Homo sapiens) [Peptide 40, hTf C-lobe library peptide, domain 2 (Green)]”, the “Binding By Truncations, Segments Included 1-3” value ([1]; TbpB N-lobe segments 1-3, listed as 12 (green)) is reported as “lost reactivity”.

For “kylgeeyvkavgnlr (KYLGEEYVKAVGNLR; listed as Homo sapiens) [Peptide 47, hTf C-lobe library peptide, tail (Cyan)]”, the “Binding By Truncations, Segments Included 1-6” value ([1]; TbpB N-lobe segments 1-6, listed as 20 (Cyan)) was “bound all of the peptides except the one”.

For “lcmgsglnlcepnnk (LCMGSGLNLCEPNNK; listed as Homo sapiens) [Peptide 42, hTf C-lobe library peptide, domain 2 (Red)]”, the “Binding By Truncations, Segments Included 1-2” value ([1]; listed as 14 (red)) was “lost reactivity”.

In the case of “mgygmalskinlhnr (MGYGMALSKINLHNR; M. catarrhalis) [Peptide 65]”, the “binding to β-gal-hTf, intensity” value (human transferrin (hTf)) is reported as “moderately positive”.

“nipmgllynkinhcr (NIPMGLLYNKINHCR; listed as Homo sapiens) [Peptide 41, hTf C-lobe library peptide, domain 2 (Blue)]” was tested, and the “Binding By Truncations, Segments Included 1-4” value ([1]; TbpB N-lobe segments 1-4, listed as 13 (Blue)) was “lost reactivity”.

In the case of tdcsgnfclfrsetk [Peptide 46], the “Binding By Truncations, Segments Included 1” value ([1]; listed as 19 (brown)) is reported as “loss of binding”.

FYKHAASEKDFSNKK (library peptide) [N. meningitidis TbpB peptide FYKHAASEKDFSNKK]: binds [2].

B1: M. catarrhalis TbpB N-lobe peptide gpvggvfyngtttak (peptide)
peptide: GPVGGVFYNGTTTAK
notes: SPOT peptide immobilised on cellulose membrane; also called spot #80
B1: no binding (β-galactosidase alone); binds [3].

B2: M. catarrhalis TbpB N-lobe peptide fmtdvanrrnrfsev (peptide)
peptide: FMTDVANRRNRFSEV
notes: SPOT peptide immobilised on cellulose membrane; also called spot #83
B2: no binding (β-galactosidase alone); binds [3].

B3: M. catarrhalis TbpB N-lobe peptide agwyygasskdeynr (peptide)
peptide: AGWYYGASSKDEYNR
notes: SPOT peptide immobilised on cellulose membrane; also called spot #85
B3: no binding (β-galactosidase alone); binds [3].

PSRQLPASGKVIYKG (library peptide) [N. meningitidis TbpB peptide PSRQLPASGKVIYKG]: binds [2].

B4: M. catarrhalis TbpB N-lobe peptide fsnlqdrhkgnvtkt (peptide)
peptide: FSNLQDRHKGNVTKT
notes: SPOT peptide immobilised on cellulose membrane; also called spot #90
B4: no binding (β-galactosidase alone); binds [3].

VIYKGVWHFVTDTKK (library peptide) [N. meningitidis TbpB peptide VIYKGVWHFVTDTKK]: binds [2].

B5: M. catarrhalis TbpB N-lobe peptide danihgnrfrgsata (peptide)
peptide: DANIHGNRFRGSATA
notes: SPOT peptide immobilised on cellulose membrane; also called spot #92
B5: no binding (β-galactosidase alone); binds [3].

B6: M. catarrhalis TbpB N-lobe peptide mgygmalskinlhnr (peptide)
peptide: MGYGMALSKINLHNR
notes: SPOT peptide immobilised on cellulose membrane; also called spot #65
B6: no binding (β-galactosidase alone); binds [3].
